Assay results from patent publication US20090181025A1 (published 2009).

Assays:
[1] = molecular target: T1, mouse TARM protein, isoform m1, expressed on B300.19 cells (mouse, UniProt B6A8R8 17-288); experiment: co-immunoprecipitation from B300.19 transfectants (1% digitonin lysate): anti-Flag IP, immunoblot with anti-mTARM #6
T1 construct: In the co-immunoprecipitation the cells were solubilized in 1% digitonin; also called mTARM; mTARM-expressing cells
T1 sequence: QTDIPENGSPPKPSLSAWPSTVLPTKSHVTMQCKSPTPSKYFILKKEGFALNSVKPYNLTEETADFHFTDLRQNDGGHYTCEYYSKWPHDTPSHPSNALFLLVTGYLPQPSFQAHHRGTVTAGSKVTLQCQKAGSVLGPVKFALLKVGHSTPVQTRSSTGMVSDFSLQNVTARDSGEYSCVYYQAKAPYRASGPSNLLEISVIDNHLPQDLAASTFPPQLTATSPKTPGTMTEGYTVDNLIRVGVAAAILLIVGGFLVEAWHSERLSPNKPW
Experimental: B300.19 transfectants were solubilized in a cell lysis buffer containing 1% digitonin (1% digtonin/50 mM Tris-HCl (pH 7.5)/150 mM NaCl/5 mM NaF/1 mM orthovanadate/Complete™ (Roche)). Immunoprecipitation was carried out using an anti-Flag antibody, and immunoblot analysis was then carried out using anti-mTARM antibody #6.

[2] = molecular target: AP protein used as a negative control (human, UniProt P05187 23-511); experiment: FACS of AP protein on mTARM-L-expressing B300.19 cells, detected with anti-PLAP antibody
Chain of AP protein used as a negative control (P05187 23-511): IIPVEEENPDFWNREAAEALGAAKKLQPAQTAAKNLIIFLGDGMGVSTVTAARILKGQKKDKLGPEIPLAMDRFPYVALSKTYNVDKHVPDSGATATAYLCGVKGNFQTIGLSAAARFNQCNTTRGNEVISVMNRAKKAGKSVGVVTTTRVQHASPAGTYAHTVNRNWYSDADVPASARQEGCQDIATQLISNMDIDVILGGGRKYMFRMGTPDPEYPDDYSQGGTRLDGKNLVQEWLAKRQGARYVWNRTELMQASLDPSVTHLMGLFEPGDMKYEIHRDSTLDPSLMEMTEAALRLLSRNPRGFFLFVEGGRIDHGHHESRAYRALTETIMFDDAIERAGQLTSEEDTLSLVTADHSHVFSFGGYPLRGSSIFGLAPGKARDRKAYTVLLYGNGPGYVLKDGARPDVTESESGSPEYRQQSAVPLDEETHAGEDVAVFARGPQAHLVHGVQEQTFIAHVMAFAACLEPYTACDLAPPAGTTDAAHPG

[3] = molecular target: T2, CD54 endogenous in bone marrow-derived mature dendritic cells (mouse, UniProt P13597 28-537); experiment: co-immunoprecipitation from mature dendritic cells (1% digitonin lysate): anti-CD54 IP, immunoblot with anti-FcRγ chain antibody
T2 construct: Control membrane protein in the co-immunoprecipitation; also called another cell membrane protein CD54
T2 sequence (P13597 28-537 limits assumed): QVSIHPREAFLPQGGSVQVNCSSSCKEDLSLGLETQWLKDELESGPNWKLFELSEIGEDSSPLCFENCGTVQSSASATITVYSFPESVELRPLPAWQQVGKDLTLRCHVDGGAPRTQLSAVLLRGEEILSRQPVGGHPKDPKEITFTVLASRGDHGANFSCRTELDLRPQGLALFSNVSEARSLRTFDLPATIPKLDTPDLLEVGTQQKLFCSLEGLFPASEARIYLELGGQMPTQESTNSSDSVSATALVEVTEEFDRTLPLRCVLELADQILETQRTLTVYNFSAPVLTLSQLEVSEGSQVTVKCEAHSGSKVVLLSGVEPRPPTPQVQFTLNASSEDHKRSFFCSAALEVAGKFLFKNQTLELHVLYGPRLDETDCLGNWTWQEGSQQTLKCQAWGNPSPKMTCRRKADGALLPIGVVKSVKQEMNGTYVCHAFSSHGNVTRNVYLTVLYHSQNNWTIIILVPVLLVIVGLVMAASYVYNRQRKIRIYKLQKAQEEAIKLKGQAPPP
Experimental: Moreover, bone marrow-derived mature dendritic cells were solubilized in a cell lysis buffer containing 1% digitonin. Immunoprecipitation was carried out using rat IgG as a negative control, anti-mTARM antibody #21, an anti-CD54 antibody and an anti-FcRγ chain antibody, and immunoblot analysis was then carried out using an anti-FcRγ chain antibody.

Binder | binding result [1] | further results
Flag tagged DAP10 expressed in B300.19 transfectants (other, UniProt Q9QUJ0 18-79, looked up, GenBank AF072846 is printed; The fragment limits are set only by the primers; not shown: N-terminal Flag tag from vector pMXII IRES-Puro) SQTSAGSCSGCGTLSLPLLAGLVAADAVMSLLIVGVVFVCMRPHGRPAQEDGRVYINMPGRG | no binding | –
mouse TARM-L (TARM ligand) expressed on B300.19 cells (ligand, also called mTARM-L; mTARM-L candidate) LEISADAHVRGYVGEKIKLKCTFKSSSDVTDKLTIDWTYRPPSSSRTESIFHYQSFQYPTTAGTFRDRISWAGNVYKGDASISISNPTLKDNGTFSCAVKNPPDVYHNIPLTELTVTERGFGTMLSSVALLSILVFVPSAVVVILLLVRMGRKATGVQKRSRSGYKKSSIEVSDDTDQEDSNDCMTRLCVRCAECLDSDYEEEAY | – | binding result [2]: no binding (tested: 30 µg/ml (method of Example 5))
FcRγ chain endogenous in bone marrow-derived mature dendritic cells (other, mouse, UniProt P20491 19-86, looked up, Native protein from lysate of mouse dendritic cells) LGEPQLCYILDAVLFLYGIVLTLLYCRLKIQVRKAAIASREKADAVYTGLNTRSQETYETLKHEKPPQ | – | binding result [3]: no binding
Flag tagged DAP12 expressed in B300.19 transfectants (other, UniProt O54885 22-114, looked up, GenBank NM-011662 is printed; The fragment limits are set only by the primers; not shown: N-terminal Flag tag from vector pMXII IRES-Puro) LSPVQAQSDTFPRCDCSSVSPGVLAGIVLGDLVLTLLIALAVYSLGRLVSRGQGTAEGTRKQHIAETESPYQELQGQRPEVYSDLNTQRQYYR | no binding | –
